No end group written: not given here.
Experiments:
[1] = test system: fos-like immunoreactivity; assay: Fos-like immunoreactivity (FLI) immunohistochemistry in hypothalamus and brainstem after IP injection; type: in vivo, rat; settings: IP 15 nmol/kg, 90 minutes
Description: The brains were removed and post-fixed overnight in PBF and then transferred to PB-sucrose (20% w/v) overnight. 40 μm coronal sections of brain and brainstem were cut on a freezing microtome and stained for fos-like immunoreactivity (FLI) by the avitin-biotin-peroxidase method. The sections were then mounted on poly-L-lysine-coated slides, dehydrated in increasing concentrations of ethanol (50-100%), delipidated in xylene and coverslipped using DPX mountant. Slides were examined for FLI-positive nuclei using a light microscope (Nikon Eclipse E-800) and images captured using a microimager (Xillix MicroImager). The numbers of FLI-positive nuclei in the hypothalamus and brainstem were counted by an independent member of the research team who was blinded to the experimental groups. The average number of FLI-positive nuclei per section was calculated and expressed as an integer for each animal.

[2] = iPVN injection, food intake in 24-h fasted rats (studies 1b, 2b); type: in vivo, rat
Procedure: (§1) Animals were handled daily after recovery from surgery until completion of the studies.
(§2) Animals had permanent stainless steel guide cannulas (Plastics One, Roanoke, Va.) stereotactically implanted ICV (intracerebraventricularly) or iPVN (into the hypothalamic paraventricular nucleus).
Therefore, exendin-4 was injected iPVN at a dose of 0.03 nmol.

[3] = ICV injection, food intake in 24-h fasted rats (studies 1a, 2a); type: in vivo, rat; settings: ICV 3 nmol, vs saline
Description: as §1, §2

[4] = target: T1, Arcuate nucleus GLP-1 receptors (Rattus norvegicus, UniProt P32301); assay: iARC exendin 9-39 prior to IP OXM or GLP-1, 1 hour food intake; type: in vivo
T1 construct: 24-hour fasted rats received an iARC injection of saline or exendin9-39 (5 nmoles); from tissue; host or cells: live rat, hypothalamic arcuate nucleus
T1 sequence (P32301 22-463): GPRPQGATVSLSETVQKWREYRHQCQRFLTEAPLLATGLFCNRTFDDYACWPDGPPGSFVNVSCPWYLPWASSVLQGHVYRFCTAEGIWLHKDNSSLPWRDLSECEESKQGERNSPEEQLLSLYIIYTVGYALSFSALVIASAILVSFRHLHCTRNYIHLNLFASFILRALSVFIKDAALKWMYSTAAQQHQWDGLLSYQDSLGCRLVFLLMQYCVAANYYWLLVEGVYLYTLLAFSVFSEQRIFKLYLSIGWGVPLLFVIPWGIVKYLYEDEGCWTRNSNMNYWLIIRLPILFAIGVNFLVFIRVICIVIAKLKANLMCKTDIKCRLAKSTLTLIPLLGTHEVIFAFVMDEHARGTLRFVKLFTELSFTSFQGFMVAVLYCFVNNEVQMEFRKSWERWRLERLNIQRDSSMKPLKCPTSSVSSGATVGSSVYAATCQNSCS
Description: Rats cannulated into the arcuate nucleus were randomised into 6 groups (n=10-12 per group). […] The injection details are described in Table 1 below.

[5] = target: T2, GLP-1 receptor (Rattus norvegicus, UniProt P32301); assay: Coadministration of exendin-(9-39) with GLP-1 or OXM, ICV and iPVN, food intake (study 4); type: in vivo
T2 construct: from tissue; host or cells: rat hypothalamus (membrane preparation)
T2 sequence (P32301 22-463): T1 sequence (P32301 22-463)

## CCK: positive control for gastric emptying at the two-hour time-point (DYMGWMDF; ends and bridges not checked; UniProt P06307 96-103, looked up)
[1]
  FLI staining in the brainstem (NTS, area postrema): caused dense staining of FLI

## glucagon
[2]; iPVN 1 nmol, any time point
  food intake after iPVN injection: failed to affect food intake at any time point
[3]
  food intake (refeeding) after ICV injection: failed to affect food intake at any time point

## exendin-(9-39)
[4]; exendin 9-39 into the ARC, dose printed 300 nmol/kg, IP OXM 30 nmol/kg
  effect on anorexia caused by IP administration of OXM: blocked
[4]; iARC exendin 9-39 (5 nmoles) or saline 15 minutes prior to IP OXM (30 nmol/kg), GLP-1 (30 nmol/kg) or saline
  Food intake (g), 1 hour: 9.0 g
[4]; prior iARC exendin 9-39, IP GLP-1 30 nmol/kg
  effect on inhibition of food intake by IP GLP-1: not affected
[5]; ICV, exendin-(9-39) 30 nmol with GLP-1 3 nmol, ratio 10:1
  effect of coadministration on anorectic effects of GLP-1: blocked the anorectic effects of GLP-1
[5]; ICV, exendin-(9-39) 30 nmol with OXM 3 nmol
  effect of coadministration on anorectic effect of OXM: attenuation of the anorectic effect of OXM
[5]; iPVN, exendin-(9-39) 10 nmol with GLP-1 1 nmol
  effect of coinjection on anorectic effects of GLP-1: blocked
[5]; iPVN, exendin-(9-39) 10 nmol with OXM 1 nmol
  effect of coinjection on anorectic effects of OXM: blocked

## exendin-4
[2]; iPVN 0.03 nmol
  food intake (refeeding) after iPVN injection: inhibited reseeding
